Measured values taken from patent US20210269521A1 (L AND L BIOPHARMA, published 2021).

How the values were obtained:
[1] = target: T1, human TIM-3 extracellular domain-human IgG1 Fc fusion protein (human, UniProt Q8TDQ0 22-199); experiment: ELISA; 15 mg/mL, His buffer pH 5.5, 37°C 0 day (-80°C)
T1 construct: Made in house or bought (ACROBiosystems TM3-H5258); also called TIM-3-hFc; not shown: human IgG1 Fc

[2] = target: T2, human PD-1 extracellular domain protein expressed in Example 1 (tag not stated) (human, UniProt Q15116 25-170); experiment: as above
T2 construct: extracellular domain; also called PD-1 protein; not shown: human IgG1 Fc or his tag

[3] = target: T1, human TIM-3 extracellular domain-human …; experiment: ELISA; preparation buffer, 37°C 14 days, against 0 day
[4] = target: T2, human PD-1 extracellular domain protein …; experiment: as above
[5] = target: T1, human TIM-3 extracellular domain-human …; experiment: ELISA; pH 5.5, 40°C 10 days
[6] = target: T2, human PD-1 extracellular domain protein …; experiment: ELISA; pH 5.5, 40°C 10 days
[7] = target: T1, human TIM-3 extracellular domain-human …; experiment: ELISA; PBS, 0 day, against 0 day
[8] = target: T2, human PD-1 extracellular domain protein …; experiment: ELISA; PBS, 0 day, against 0 day
[9] = target: T1, human TIM-3 extracellular domain-human …; experiment: ELISA; 15 mg/mL in PBS, 37°C 0 day (-80°C)
[10] = target: T1, human TIM-3 extracellular domain-human …; experiment: ELISA; pH 5.5, 37°C 10 days
[11] = target: T2, human PD-1 extracellular domain protein …; experiment: ELISA; pH 5.5, 37°C 10 days
[12] = target: T1, human TIM-3 extracellular domain-human …; experiment: ELISA; pH 6.0, 0 day, against 0 day
[13] = target: T2, human PD-1 extracellular domain protein …; experiment: ELISA; pH 6.0, 0 day, against 0 day
[14] = target: T2, human PD-1 extracellular domain protein …; experiment: double-sandwich ELISA: PD-1 coated, LB141 titrated, detected with Bio-TIM-3-his and streptavidin-HRP
Protocol: After discarding the liquid, 200 μl/well of blocking solution of 5% skimmed milk (Sangon Biotech (Shanghai) Co., Ltd., A600669-0250) diluted with PBS was added, and the microplate was placed at 4° C. overnight (16-18 hours) for blocking. After discarding the blocking solution, the microplate was washed 5 times with PBST buffer (pH 7.4 PBS containing 0.05% tween-20). […] Followed by washing the plate 5 times with PBST, 50 μl/well of 1 μg/ml Bio-TIM-3-his (ACROBiosystems, TM-H5229) was added and incubated at 37° C. for 1 hour. Then the microplate was washed 5 times with PBST again, and 50 μl/well 1:1000 diluted streptavidin-HRP secondary antibody (Nanjing Genscript Biotech Corporation, M00091) was added and incubated at 37° C. for 1 hour. After washing the microplate 5 times with PBST, 50 μDwell TMB chromogenic substrate (KPL, 52-00-03) was added and incubated at room temperature for 5-10 min.

[15] = target: T1, human TIM-3 extracellular domain-human …; experiment: ELISA; PBS, 37°C 14 days, against 0 day
[16] = target: T2, human PD-1 extracellular domain protein …; experiment: ELISA; PBS, 37°C 14 days, against 0 day
[17] = target: T1, human TIM-3 extracellular domain-human …; experiment: ELISA; pH 5.5, 37°C 7 days, against 0 day
[18] = target: T2, human PD-1 extracellular domain protein …; experiment: ELISA; pH 5.5, 37°C 7 days, against 0 day
[19] = target: T1, human TIM-3 extracellular domain-human …; experiment: ELISA; 15 mg/mL in preparation buffer (20 mM His pH 6.0), 37°C 0 day (-80°C)
[20] = target: T2, human PD-1 extracellular domain protein …; experiment: as above
[21] = target: T1, human TIM-3 extracellular domain-human …; experiment: ELISA; 40°C 0 day, against 0 day
[22] = target: T2, human PD-1 extracellular domain protein …; experiment: ELISA; 40°C 0 day, against 0 day
[23] = target: T1, human TIM-3 extracellular domain-human …; experiment: ELISA; 15 mg/mL, His buffer pH 6.0, 37°C 0 day (-80°C)
[24] = target: T2, human PD-1 extracellular domain protein …; experiment: as above
[25] = target: T1, human TIM-3 extracellular domain-human …; experiment: ELISA; pH 5.5, 0 day, against 0 day
[26] = target: T2, human PD-1 extracellular domain protein …; experiment: ELISA; pH 5.5, 0 day, against 0 day
[27] = target: T1, human TIM-3 extracellular domain-human …; experiment: ELISA, EC50 of bispecific over EC50 of the monoclonal control

B1: bispecific antibody LB141 (bispecific antibody, human IgG4 S228P, kappa)
light: EIVLTQSPATLSLSPGERATLSCRASKGVSTSGYSYLHWYQQKPGQAPRLLIYLASYLESGVPARFSGSGSGTDFTLTISSLEPEDFAVYYCQHSRDLPLTFGGGTKVEIKRTVAAPSVFIFPPSDEQLKSGTASVVCLLNNFYPREAKVQWKVDNALQSGNSQESVTEQDSKDSTYSLSSTLTLSKADYEKHKVYACEVTHQGLSSPVTKSFNRGEC
heavy: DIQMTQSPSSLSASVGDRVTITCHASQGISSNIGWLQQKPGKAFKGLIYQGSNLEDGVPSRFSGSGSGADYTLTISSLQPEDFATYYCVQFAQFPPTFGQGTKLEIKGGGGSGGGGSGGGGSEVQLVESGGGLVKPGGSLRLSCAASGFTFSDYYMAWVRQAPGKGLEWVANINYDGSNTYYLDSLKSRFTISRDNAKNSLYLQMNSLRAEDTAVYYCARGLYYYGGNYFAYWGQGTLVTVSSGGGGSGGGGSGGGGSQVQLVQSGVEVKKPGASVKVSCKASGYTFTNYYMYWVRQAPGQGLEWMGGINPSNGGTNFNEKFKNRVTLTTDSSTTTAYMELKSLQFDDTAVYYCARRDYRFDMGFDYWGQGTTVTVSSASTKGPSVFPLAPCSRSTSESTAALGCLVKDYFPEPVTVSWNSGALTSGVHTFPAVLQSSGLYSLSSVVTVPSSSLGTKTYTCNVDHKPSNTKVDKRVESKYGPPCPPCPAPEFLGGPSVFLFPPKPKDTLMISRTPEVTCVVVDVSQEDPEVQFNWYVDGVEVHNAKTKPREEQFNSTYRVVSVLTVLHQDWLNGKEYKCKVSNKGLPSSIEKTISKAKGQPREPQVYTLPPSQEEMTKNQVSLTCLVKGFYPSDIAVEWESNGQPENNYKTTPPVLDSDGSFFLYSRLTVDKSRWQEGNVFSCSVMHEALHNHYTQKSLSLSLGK
notes: ab6VL-(G4S)3-ab6VH-(G4S)3-PemVH-hIgG4 with PemVL-κ
[1]
  EC50: 0.148 nM
[2]
  EC50: 0.144 nM
[3]
  Fold change of EC50: 47.9 ratio
[4]
  Fold change of EC50: 1.18 ratio
[5]
  EC50: 0.373 nM
[6]
  EC50: 0.215 nM
[7]
  Fold change of EC50: 1 ratio
[8]
  Fold change of EC50: 1 ratio
[9]
  EC50: 0.253 nM
[10]
  EC50: 0.307 nM
[11]
  EC50: 0.199 nM
[12]
  Fold change of EC50: 1 ratio
[13]
  Fold change of EC50: 1 ratio
[14]
  EC50: 0.816 nM
[15]
  Fold change of EC50: 2.71 ratio
[16]
  Fold change of EC50: 1.37 ratio
[17]
  Fold change of EC50: 1.06 ratio
[18]
  Fold change of EC50: 0.89 ratio
[19]
  EC50: 0.303 nM
[20]
  EC50: 0.378 nM
[21]
  Fold change of EC50: 1 ratio
[22]
  Fold change of EC50: 1 ratio
[23]
  EC50: 0.164 nM
[24]
  EC50: 0.146 nM
[25]
  Fold change of EC50: 1 ratio
[26]
  Fold change of EC50: 1 ratio
[27]
  Multiple of EC50 variation: 0.83 ratio
